B1: VSTB112 (antibody, V domains shown)
VH: QVQLVQSGAEVKKPGSSVKVSCKASGGTFSSYAISWVRQAPGQGLEWMGGIIPIFGTANYAQKFQGRVTITADESTSTAYMELSSLRSEDTAVYYCARSSYGWSYEFDYWGQGTLVTVSS
VL: DIQMTQSPSSLSASVGDRVTITCRASQSIDTRLNWYQQKPGKAPKLLIYSASSLQSGVPSRFSGSGSGTDFTLTISSLQPEDFATYYCQQSAYNPITFGQGTKVEIK
notes: human IgG1 heavy chain; human kappa light chain; full human IgG1; also called CI-8993 (Janssen/ImmuNext, Curis); source: Expi293 cells, purified (protein A)
B2: BMS767 (antibody, V domains shown)
VH: EVQLVESGGGLVQPGKSLRLSCAASGFTLEDYAMHWVRQAPGKGLEWVSGIDWNSENIGYADSVKGRFTISRDNAKNSLYLQMNSLRTEDTALYYCAKVPGYSGGWIDAEDDWGQGTMVTVSS
VL: not shown
notes: human IgG1 heavy chain; human kappa light chain; full human IgG1; also called BMS (Bristol Myers Squibb); source: Expi293 cells, purified (protein A)

Legend:
yeast-displayed hVISTA [1] = biological target: T1, yeast-displayed hVISTA (human); test: flow cytometry on cells; hVISTA (Phe33-Ala194) displayed on yeast, titrations of soluble antibody in PBS/BSA pH 7.4, 4 °C, 12 h; details: one partner purified
T1 construct: also called wild-type hVISTA; WT VISTA
T1 sequence (chain, as listed by the source): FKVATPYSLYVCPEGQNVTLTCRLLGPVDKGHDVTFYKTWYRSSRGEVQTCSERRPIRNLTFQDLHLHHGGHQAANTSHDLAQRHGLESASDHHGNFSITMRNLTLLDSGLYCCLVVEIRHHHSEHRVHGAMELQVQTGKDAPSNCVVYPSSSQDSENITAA

yeast-displayed hVISTA [2] = biological target: T1, yeast-displayed hVISTA; test: flow cytometry on cells; hVISTA (Phe33-Ala194) displayed on yeast, titrations of soluble antibody in PBS/BSA pH 6.0, 4 °C, 12 h; details: one partner purified

Binder | Kd (yeast-displayed hVISTA [1]) | Kd (yeast-displayed hVISTA [2])
B1 | ~3 nM | 
B2 |  | ~3 nM

Reference: PMC7494997 (Scientific Reports, 2020)
